{"source": "the nanobody polyreactivity screen of Harvey et al. (2022)"}
{"assay": "yeast display, Sf9 membrane polyspecificity reagent, FACS + sequencing; frameworks hold sequencing errors", "outline": "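A synthetic nanobody library was expressed on Saccharomyces cerevisiae BJ5465 by galactose induction for 36–48 hours. The library was stained for 1 hour at 4 °C with 10% biotinylated, detergent-solubilized Sf9 membrane reagent and enriched with streptavidin microbeads before FACS. Low and high (top ~1%) gates were set on anti-HA fluorescence for expression and streptavidin fluorescence for reagent binding, and each polyreactivity label reflects the gate of origin.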"}
{"sequence": "QVQLVESGGGLVQAGGSLRLSCAASGRILYIYAMGWYRQAPGKERELVAAIRSSGGSTYYADSVKGRFTISRDNAKNTVYFQMNSLKPEDTAVYYCAAPDFPKYYPTAYLQADEYWGQGTQVTVSS", "polyreactivity (PSR sort gate)": "high polyreactivity"}
{"sequence": "QVQLVESGGGLVQAGGSLRLSCAASGRTFDYNAMGWYRQAPGKEREFVAAITKSGGSTNYADSVKGRFTISRDNEKNTVYLQMNSLKPEDTAVYYCNATYVVIHEYDYWGQGTQVTVSS", "polyreactivity (PSR sort gate)": "low polyreactivity"}
{"sequence": "QVQLVESGGGLVLAGGRLRLSCAASGRIFTRYAMGCYRQAPGKERELVAVITRSGGSTYYADSVKGRFTISRDIAKNTVYLQMNSLKPEDTAVYYCAAKYYGEMYYWGQGTQVTVSS", "polyreactivity (PSR sort gate)": "low polyreactivity"}
{"sequence": "QVQLVESGGGLVQAGGSLRLSCAASRFTFTAYAMGWYRQAPGKERELVAAITGTGGSTKYADSVKGRFTISRDNAKNSVDLQMYSLKPEDTAVYYCAAIRFTLRRMDYWGHGTQVTVSS", "polyreactivity (PSR sort gate)": "high polyreactivity"}
{"sequence": "QVQLVESGGGLVQAGGSLRLSCAASGFILYTYAMGWYIQAPGKERELVADIDSGDGTYYADSVKGRFTISRDNAKNTVYLQMNSLKPEDTAVDYCAADYGGASEYGYWGQGTQVTVSS", "polyreactivity (PSR sort gate)": "low polyreactivity"}
{"sequence": "QVQLVESWGGLVQAGGSLRLSCAASGIIFRTYAMGWYRQAPWKERELVAAINSDGSTYYADSVKGRFTISRDNAKNTVYLQMNSLKPEDTAVYYCAATYGRSRKDGYWGQGTQVTVSS", "polyreactivity (PSR sort gate)": "high polyreactivity"}
{"sequence": "QVQLVESGVGLVQAGGSLRLSCAASGIIFFFYAMGWYIQAPGKERELVAAISDDGVSTDYADSVKGRFTISRDNAKNTVYLQMNSLKPEDTAVYYCSAKNERVYPWFSFGYWGQGTQVTVSS", "polyreactivity (PSR sort gate)": "low polyreactivity"}
{"sequence": "QVQLQESSGGLVQAGGSLRMSCAASGTIFHIHIMGRYRQAPGKEGEFVAAISYGTSTYYADSVKGRFTISRDNAKNTVYLQMNSQKPEDTAVYYCAVYDYLEVYFWYWGQGTQVTVSS", "polyreactivity (PSR sort gate)": "low polyreactivity"}
{"sequence": "QVQLVESGGGLVQAGGSLRLSCAASGFNFEENAMGWYRQAPGKERELVAAINWSGGNTYYADSVKGRFTISRDNAKNTVYLQMNSLKPEDTAVYYCAAEYRSWSWRMDYWGQGTQVTVSS", "polyreactivity (PSR sort gate)": "high polyreactivity"}
{"sequence": "QVQLVESGGGLFQAGGSLRLSCAASGITFHRYDMVWYRQAPGKERELVADITWCGGSTYYADSVKGRFTISRDNAKNTVYLQMNSLKPEDTAVYYCAADASTYTDTPYDYWGQGSQVTVSS", "polyreactivity (PSR sort gate)": "low polyreactivity"}
{"sequence": "QVQLVESGGGLVQAGGSLRLSCAASGSTFQVYAMGWYRQAPGKERELVAAISNGGRTNYADSVKGRFTISRDNAKNTVYLQMNSLKPEDTAVYYCNADQVWWSFDRVLVGYEYWGQGTQVTVSS", "polyreactivity (PSR sort gate)": "low polyreactivity"}
{"sequence": "QVQLVESGGGLVQAVGSLRLSGAASGSIFQYTAMGRYRQAPGKERELVAAISSRGGIRYYADSVKGRFTISRDNAKYTVFLQMNSLKPEDTAVYYCAAEAYYSDVRWSEYWGQGTQVTVSS", "polyreactivity (PSR sort gate)": "high polyreactivity"}
{"sequence": "QVQLVESRGGLVQAGGSLRLSCAASGSIFGRNAMGWYRQAPGKERELVAAIRSGDSTNYADSVKGRFTISRDNAKNTVYLQMNSLKPEDTAVYYCAADYIFWHRRDKKSVVMDYWGQGTQVTVSS", "polyreactivity (PSR sort gate)": "low polyreactivity"}
{"sequence": "QVQLVESGGGLVQAGGSLRLSCAASGIIFYYYAMGWYRQAPGKERELVAAISWSGGSTYYADSVKGRFTISRDNAKNTVYLQMNSLKPEDTAVYYCAADYTGHIYYYWGQGTQVTVSS", "polyreactivity (PSR sort gate)": "low polyreactivity"}
{"sequence": "QVQLVESGGGLVQAGGSLRLSCAASGRIFWRNAMGWSRQAPGKERELVAAISSGGSTYYADSVKGRFTISRDNAKNTVYLQMNSLKPEDTAVYYCAARSSWRGVRYDHFERVYWGQGTQVTVSS", "polyreactivity (PSR sort gate)": "high polyreactivity"}
{"sequence": "QVQLVESRGGLVQAGGSLRLSCAASGFTFFVYPMGWYRQAAGKERELVAVITSGGTTNYADSVKGRFTISRDNAKNTVYLQMNSLIPEDTAVYYCATDNGGIPKYVPYDYWGQGTQGTVSS", "polyreactivity (PSR sort gate)": "high polyreactivity"}
{"sequence": "QVQLVESGGGLVQAGGILRLSCAASGRIFPKYAMGWYRQAPGKERELVAAIRWSGGNTYYADSVKGRFTISRDNAKNTVYLQMNSLKPEDTAVYYCAATPYVSKYYYFGHDYWGQGTQVTVSS", "polyreactivity (PSR sort gate)": "high polyreactivity"}
{"sequence": "QVQLVESGGGLVQAGGSLRLSCAASGTFTSNAMGWYRQAPGKERELVAVITGGGRTNYADSVKGRFTISRDNAKNTVYLQMNSLKPEDTAVYYCAAEVYLPYYERYDYWGQGTQVTVSS", "polyreactivity (PSR sort gate)": "low polyreactivity"}
{"sequence": "QVQLVESGGGLVQAGGSLRLSCAASGSIFYTYAMGWYRQAPGKERELVAAITYRVGSTYYADSVKGRFTISRDNAKNTVYLQMNSLKPEDTAVYYCNADKGGHVRHYDYWGQGTQVTVSS", "polyreactivity (PSR sort gate)": "low polyreactivity"}
{"sequence": "QVQLQESGGGLVQAGGSLRLSCAESGTIFRISDMGSYRQAPGKEREFVASITYGANTYYADSGKGRFTISRDNAKNTVYLQMNSLKPEDTAVYYCAVPPVKETILDYWGQGTQVTVCS", "polyreactivity (PSR sort gate)": "low polyreactivity"}
{"sequence": "QVQLVESGGGLVQAGGSLRLSCAASGSIFDQNAMVWYRQAPGKERELVAAITRGGSTKYADSVKGRFTISRDNAKNTVYLQMNSLKPEDTAVYYCARTARRRYQPYEYWGQGTQVTVSS", "polyreactivity (PSR sort gate)": "low polyreactivity"}
{"sequence": "QVQLVESGGGLVQAGGSLRLSCAASGRIFYLNVMGWYRQAPGKERELVAAITRRDVTTYADSVKGRFTISRDNAKNTVYLQMNSLKPEDTAVYYCNAVYYNRIGFDYWGQVTQVTVSS", "polyreactivity (PSR sort gate)": "low polyreactivity"}
{"sequence": "QVQLVETGGGLVQAGGSLRLSCAAYGFTFEYNAMGWYRQAPGKERELVAAITTTGSTYYADSVKGRFTISRDNAKNTVYLQMNSLKPEDTAVYYCAADPVWRGYSYQFDYWGQGTQVTVSS", "polyreactivity (PSR sort gate)": "low polyreactivity"}
{"sequence": "QVQLVESGGGLVQAGGSLRLSCAASGSIFGFKVMGWYRQEPGKERELVAAITYSGGSTYYADSVKGRFTISRANAKNTVYIQMNSLKPEDTAVYYCAADTFTPYWWYSSLDEYWGQGTQVTVSS", "polyreactivity (PSR sort gate)": "high polyreactivity"}
{"sequence": "QVQLEESGGGLVQAGGSLRLSCAASGSIIGPNAMGWYRQAPGKDRELVAAITSGSSTKYADSVKGRFTISRDNAMNTVYLQMNSLKPEDTAVDYCAASGTTTWKYGFWGQGTQVTVSS", "polyreactivity (PSR sort gate)": "low polyreactivity"}
{"sequence": "QVQLVESGGGLVQAGGSLRLSCAACGRTFRGYAMGWYRQAPGKERELVAAITSGGSTYYADSVKGRFTISRDNAKNTDFLEMNSLKPEDTAVYYCNKLYYSGKPRFRYDYWGQGTQVTVSS", "polyreactivity (PSR sort gate)": "high polyreactivity"}
{"sequence": "QVQLVESGGGLVQAGGSLRLSCAASGSTFDYYTMGGYRQAPGKERELVAAISSSGGSTYYADSVKGRFTISRDNAKNNVYLQMISLKPEDTAVYYCAADASPYGDVYDYWGQGTQVTVSS", "polyreactivity (PSR sort gate)": "low polyreactivity"}
{"sequence": "QVQLVESGGGLVQAGGSLRLSCAASGLTFDDYAMGWYRQAPGKERELVAAINWSGSNTYYADSVKGRFTISRDNAKNTVYLQMNSLKPEDTAVYYCATYSRIFKWEYYYWGQGTQVTVSS", "polyreactivity (PSR sort gate)": "high polyreactivity"}
{"sequence": "QVQLVESGGGLVQAGGSLRLSCAASGRILRGNAMGGYRQAPGKERELVADINYSDGSTYYADSVKGRFTISRDNAKNTVYLQMNSLKPEDTAVYYCAKKNPLVFTSGMDYWGQGTQVTVSS", "polyreactivity (PSR sort gate)": "low polyreactivity"}
{"sequence": "QVQLVESGGGLVQAGGSLRLSCAASGLTFVYYAMGWYRQAPGKERELVAAISESGTSTYYADSVKGRFTISRDNAKNTVYLQMNSLKPEDTAVYYCAAKDSYYEMDYWGQGTQVTVSS", "polyreactivity (PSR sort gate)": "high polyreactivity"}
